Test results: article PMC5357137, “Target DNA bending by the Mu transpososome promotes careful transposition and prevents its reversal” (eLife, 2017)

Biological target: the molecule itself
Experiment: SEC; CDCs formed from a 2:1 mixture of MuA protein and Mu end DNA at 30°C for ≥1 hr; 25 mM HEPES pH 7.4, 200 mM NaCl, 5% glycerol, 0.6 mM Zwittergent 3-12, 0.5 mM EDTA, no Mg2+; Superdex 200 Increase 10/300; tetramer peak collected

B1: MuA transposase lacking domain Iα (residues 1–76) (enzyme)
chain: not shown
notes: MuA transposase of bacteriophage Mu; all constructs lacked domain Iα (residues 1-76); domain IIIβ (the C-terminal ~60 residues) is included; In the assay it stood with Mu end DNA fragments as the cleaved-donor complex (CDC); The crystal structure PDB 4FCY holds a shorter construct without domain IIIβ; also called MuA protein; WT
  stoichiometry N: 4
